Measurements reported in PMC5124963, “Negative feedback regulation of ABA biosynthesis in peanut (Arachis hypogaea): a transcription factor complex inhibits AhNCED1 expression during water stress”.

Target: T1, GST-AhAREB1 (Arachis hypogaea, UniProt G4X5C6 1-445)
T1 sequence: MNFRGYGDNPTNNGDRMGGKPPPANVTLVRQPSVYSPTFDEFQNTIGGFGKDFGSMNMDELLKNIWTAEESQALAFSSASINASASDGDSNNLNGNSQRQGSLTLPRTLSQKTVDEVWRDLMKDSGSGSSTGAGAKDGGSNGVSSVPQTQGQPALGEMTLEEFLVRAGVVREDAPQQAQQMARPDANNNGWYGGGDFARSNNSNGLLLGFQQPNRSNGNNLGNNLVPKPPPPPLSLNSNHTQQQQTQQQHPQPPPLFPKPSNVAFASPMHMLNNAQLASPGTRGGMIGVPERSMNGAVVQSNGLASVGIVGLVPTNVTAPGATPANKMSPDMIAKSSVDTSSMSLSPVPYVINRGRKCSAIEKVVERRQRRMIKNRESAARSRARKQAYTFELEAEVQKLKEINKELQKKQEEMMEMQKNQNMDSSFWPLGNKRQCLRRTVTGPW
Assay: EMSA; LightShift Chemiluminescent EMSA kit (Pierce); buffer, salt, pH and temperature not stated
Settings: protein: recombinant; tags: N-terminal GST (pGEX-4T-1); chain copies: 2; label: biotin

B1: WT probe, AhNCED1 promoter ABRE/NACRE (-1367) (dsDNA)
DNA 1: CTCATCAATTATCACGTGTGATTGCTCTCA
DNA 2: TGAGAGCAATCACACGTGATAATTGATGAG
binding result: binds
